Reference: patent publication US20090203038A1 (AbbVie / Abbott, published 2009)

Target: T1, biotinylated cyclic BNP (1-32c) (human, biotinylated; cyclic)
T1 construct: also called human BNP
Experiment: flow cytometry, yeast-displayed scFv, biotinylated cyclic BNP (1-32c) detected with SA:PE
Procedure: Dilutions of the transformation reaction were plated on selective glucose plates (2% glucose (0.67% yeast nitrogen base, 0.105% HSM-trp-ura, 1.8% bacterial agar, 18.2% sorbitol, 0.86% NaH₂PO₄H₂O, 1.02% Na₂HPO₄ 7H₂O)) and incubated at 30° C. for 48-72 hours. Selective glucose media was inoculated with individual colonies and grown shaking at 30° C. for 16-20 hours. Protein expression was induced in colonies by transferring 0.5 OD600 of cells/ml (1e7 cells/0.5 OD/ml) to selective galactose media. Colonies were shaken at 20° C. for 16-24 hours and then analyzed by the FACS Aria flow cytometer for binding to cyclic BNP (referred to as “1-32c”) (SEQ ID NO:10) and anti-V5.

T1 sequence (peptide, as listed by the source): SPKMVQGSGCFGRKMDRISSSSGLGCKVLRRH

B1: 3-631-436 scFv (wildtype), displayed on the surface of yeast (scFv)
scFv: QVQLQQPGAELVRPGASVKLSCKASGYTFTSYWMNWVKQRPEQGLEWIGRIDPYDSETHYNQKFKDKAILTVDKSSSTAFVQLTSLTSEDSAVYYCVSDGYWGAGTTVTVSSGPAKELTPLKEAKVSDVVMTQTPLTLSVTTGQPASISCKSSQSLLDSDGKTYLNWLFQRPGESPKLLIYVVSKLESGVPDRFTGSGSGTDFTLKISRVEAEDLGVYYCLQATHFPWTFGGGTKLEIKRAAALESRGPFEGKPIPNPLLGLDSTRTGHHHHHH
  binding result: binds
